Reference: patent US20190041402A1 (GOVERNING COUNCIL OF THE UNIVERSITY OF TORONTO, published 2019)

Target: T1, soluble human αKlotho (recombinant) (human, UniProt Q9UEF7 34-981)
T1 construct: also called Hu aKL; recombinant human αKlotho
T1 sequence (looked up): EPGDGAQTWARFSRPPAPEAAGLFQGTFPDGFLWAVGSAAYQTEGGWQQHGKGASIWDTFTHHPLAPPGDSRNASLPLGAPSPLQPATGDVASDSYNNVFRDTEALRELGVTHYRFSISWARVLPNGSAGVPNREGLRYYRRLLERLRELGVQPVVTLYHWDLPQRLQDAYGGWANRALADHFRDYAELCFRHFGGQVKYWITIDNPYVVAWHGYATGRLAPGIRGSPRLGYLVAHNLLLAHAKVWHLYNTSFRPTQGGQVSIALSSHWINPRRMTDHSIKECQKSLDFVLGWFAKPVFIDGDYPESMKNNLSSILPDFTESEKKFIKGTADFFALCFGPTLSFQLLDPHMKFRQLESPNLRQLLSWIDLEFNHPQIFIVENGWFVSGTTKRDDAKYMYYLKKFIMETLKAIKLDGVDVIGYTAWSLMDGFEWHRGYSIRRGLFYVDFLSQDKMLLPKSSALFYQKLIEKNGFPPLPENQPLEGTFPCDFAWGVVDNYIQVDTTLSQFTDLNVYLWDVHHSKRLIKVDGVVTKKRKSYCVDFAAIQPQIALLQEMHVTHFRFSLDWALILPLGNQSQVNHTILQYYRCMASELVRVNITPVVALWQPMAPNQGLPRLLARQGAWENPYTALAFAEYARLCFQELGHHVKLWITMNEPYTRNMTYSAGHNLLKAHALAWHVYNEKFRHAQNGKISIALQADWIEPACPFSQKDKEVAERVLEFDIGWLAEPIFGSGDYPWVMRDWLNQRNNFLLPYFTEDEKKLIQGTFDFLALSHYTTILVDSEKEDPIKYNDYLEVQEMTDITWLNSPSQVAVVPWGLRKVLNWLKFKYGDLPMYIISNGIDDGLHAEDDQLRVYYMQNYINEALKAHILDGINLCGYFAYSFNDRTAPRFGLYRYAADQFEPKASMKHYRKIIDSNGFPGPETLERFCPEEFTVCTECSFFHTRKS
Assay: SPR (ProteOn XPR36), Fab captured by anti-IgG(H+L), human αKlotho injected in serial dilutions, Langmuir fit
Method: Estimated affinities against human and mouse antigen for select αKlotho Fabs were obtained by surface plasmon resonance on a ProteOn XPR36 (FIG. 17). Fabs were captured using an anti-IgG(H+L) antibody and serial dilutions of αKlotho were injected. Binding curves were fitted to the Langmuir model. (A) Determined Kon, Koff and KD values. (B) and (C) Binding curves for human and mouse antigen respectively.

B1: sb106 Fab (Fab, V domains shown)
VH: EVQLVESGGGLVQPGGSLRLSCAASGFNISYYSIHWVRQAPGKGLEWVAYISPSYGYTSYADSVKGRFTISADTSKNTAYLQMNSLRAEDTAVYYCARYYVYASHGWAGYGMDYWGQGTLVTVSS
VL: DIQMTQSPSSLSASVGDRVTITCRASQSVSSAVAWYQQKPGKAPKLLIYSASSLYSGVPSRFSGSRSGTDFTLTISSLQPEDFATYYCQQAGYSPITFGQGTKVEIKR
notes: also called Fsb106; clone 48
Kd: 1.02 nM | koff: 0.000315 s⁻¹ | kon: 308000 M⁻¹ s⁻¹
